Binding result, Kd and kon data for 3 molecules are collected here from US20130302346A1 (LEXICON PHARMACEUTICALS, published 2013).

For orientation: Kd means a measure of binding affinity in units of concentration. High values mean lower affinity, low ones higher affinity. For orientation: kon means a measure of how fast the partners come together. The low end stands for slower complex formation, the high end for faster complex formation.

Positions count from the first letter of the chain named.

One experiment deals with T1, H(Q47).
T1 construct: Drawn on the sheet as a signal peptide (SP) followed by human NOTUM starting at Q47; CD33 signal peptide'; also called Human NOTUM (delta 1-46) with CD33 signal peptide
T1 single chain: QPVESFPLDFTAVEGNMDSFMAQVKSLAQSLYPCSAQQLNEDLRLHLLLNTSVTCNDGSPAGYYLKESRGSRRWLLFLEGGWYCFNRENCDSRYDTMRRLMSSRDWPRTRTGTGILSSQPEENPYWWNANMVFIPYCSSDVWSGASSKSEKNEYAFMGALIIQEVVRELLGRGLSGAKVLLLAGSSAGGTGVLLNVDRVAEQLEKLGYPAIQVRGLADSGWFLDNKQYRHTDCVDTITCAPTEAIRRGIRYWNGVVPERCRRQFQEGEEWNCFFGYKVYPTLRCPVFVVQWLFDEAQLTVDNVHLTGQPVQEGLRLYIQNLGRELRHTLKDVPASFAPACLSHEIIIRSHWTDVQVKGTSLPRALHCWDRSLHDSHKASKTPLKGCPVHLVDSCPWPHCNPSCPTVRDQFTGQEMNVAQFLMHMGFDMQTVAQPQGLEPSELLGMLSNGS
In words: ELISA on conditioned medium of HEK293F transfected with the NOTUM construct (Example 6.7). The text has this: (§1) The sequences of those proteins are shown in Section 7 (Table of Sequences). The conditioned media were used in ELISA format to determine antibody specificity. […] Within this region, mouse and human NOTUM differ at five positions (R115K, D141S. R150K, R154H, and Y171H, based on the human sequence numbering). Human NOTUM point mutants were generated by transient transfection of constructs expressing human NOTUM with the mouse amino acid at each of these five positions and the point mutants were all shown to be functional in the OPTS assay.
(In general: ELISA stands for enzyme-linked immunosorbent assay.)

Another experiment concerns the target T2, M-H.
T2 construct: Drawn on the sheet as mouse N-terminal part and human C-terminal part; Conditioned medium from transfected HEK293F; also called Mouse-human chimeric NOTUM
T2 single chain: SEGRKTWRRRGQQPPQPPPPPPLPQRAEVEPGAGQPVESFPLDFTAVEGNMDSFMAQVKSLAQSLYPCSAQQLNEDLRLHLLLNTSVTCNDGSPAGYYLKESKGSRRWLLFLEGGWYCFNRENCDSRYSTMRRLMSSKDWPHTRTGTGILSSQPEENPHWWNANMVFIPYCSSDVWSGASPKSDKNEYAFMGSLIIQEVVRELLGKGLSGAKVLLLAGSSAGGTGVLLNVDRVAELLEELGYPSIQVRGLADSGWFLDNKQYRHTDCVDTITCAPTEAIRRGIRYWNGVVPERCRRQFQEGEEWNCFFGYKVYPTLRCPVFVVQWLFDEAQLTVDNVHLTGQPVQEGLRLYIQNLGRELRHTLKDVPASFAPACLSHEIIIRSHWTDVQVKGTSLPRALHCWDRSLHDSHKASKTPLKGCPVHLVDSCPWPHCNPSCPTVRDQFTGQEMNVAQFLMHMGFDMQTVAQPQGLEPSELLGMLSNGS
The description is as above.
Source text: as §1

The target of the next experiment is T3, H-M.
T3 construct: Drawn on the sheet as human N-terminal part and mouse C-terminal part; Produced by transient transfection of HEK293F and used as conditioned medium; also called Human-mouse chimeric NOTUM
T3 single chain: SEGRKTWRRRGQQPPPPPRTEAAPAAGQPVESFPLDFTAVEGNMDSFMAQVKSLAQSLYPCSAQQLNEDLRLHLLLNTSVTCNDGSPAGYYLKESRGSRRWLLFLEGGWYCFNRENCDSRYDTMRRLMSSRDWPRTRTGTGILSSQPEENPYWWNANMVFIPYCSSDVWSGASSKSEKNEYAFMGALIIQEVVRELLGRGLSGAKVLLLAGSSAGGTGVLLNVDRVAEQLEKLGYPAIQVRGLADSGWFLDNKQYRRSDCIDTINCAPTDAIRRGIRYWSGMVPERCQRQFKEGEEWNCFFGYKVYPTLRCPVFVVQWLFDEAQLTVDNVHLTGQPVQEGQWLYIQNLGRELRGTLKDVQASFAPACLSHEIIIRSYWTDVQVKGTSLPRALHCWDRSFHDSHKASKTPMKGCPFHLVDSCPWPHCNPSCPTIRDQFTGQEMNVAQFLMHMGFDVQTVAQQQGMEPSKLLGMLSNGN
Described as above.
Source text: as §1

In a further experiment the target is T4, Human NOTUM (human, UniProt Q6P988 20-496).
T4 construct: also called human notum pectinacetylesterase; recombinant human NOTUM
T4 sequence: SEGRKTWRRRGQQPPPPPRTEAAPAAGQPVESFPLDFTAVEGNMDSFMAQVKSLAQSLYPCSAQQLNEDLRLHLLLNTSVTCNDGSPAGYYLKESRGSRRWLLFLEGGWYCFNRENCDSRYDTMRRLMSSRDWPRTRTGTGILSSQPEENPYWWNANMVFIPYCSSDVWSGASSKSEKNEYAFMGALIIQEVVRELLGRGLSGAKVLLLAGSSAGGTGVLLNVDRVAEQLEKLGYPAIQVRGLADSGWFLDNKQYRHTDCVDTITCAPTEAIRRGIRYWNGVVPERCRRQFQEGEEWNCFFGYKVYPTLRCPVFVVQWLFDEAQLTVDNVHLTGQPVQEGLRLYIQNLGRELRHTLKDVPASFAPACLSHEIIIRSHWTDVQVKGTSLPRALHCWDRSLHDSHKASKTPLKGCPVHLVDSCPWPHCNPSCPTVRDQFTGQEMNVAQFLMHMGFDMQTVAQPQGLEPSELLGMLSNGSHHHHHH
The experiment is described as follows: Biacore 3000. As to the method: Binding affinities of certain anti-NOTUM MAbs was determined using a Biacore 3000. In order to obtain meaningful affinity values for binding to multimeric […] NOTUM protein, antibody FAb fragments were generated by digestion of whole IgG with the protease Ficin, followed by removal of undigested IgG and Fc fragments by protein A affinity chromatography. Affinity values for binding of FAbs and whole IgG to human NOTUM corresponded, and their affinity values were in the single to low double digit nM range, as shown in Table 3.

B1: MAb 1.802 (antibody, V domains shown)
VH: EVQLVESGGGLVKPGGSLKLSCAASGFTFSDYGMHWFRQAPEKGLEWVAYISSGSRTVYYADTVKGRFTISRDNAKNTLSLQMTSLRSEDTAMYYCARKHYNGGYFDVWGTGTTVTVSS
VL: DIVLTQSPASLAVSLGQRATISCRASKIVSTSGYSYMHWYQQKPGQPPKLLIYLASNLESGVPARFSGSGSGTDFTLNIHPVEEEDAATYYCQHSRELPPTFGSGTKLEIKR
notes: Mouse monoclonal antibody from Campaign 1 (raised against human NOTUM), IgG1
With B1, the binding result was “binds” with H(Q47), “no binding” in the experiment with M-H and “binds” with H-M. The Kd in the experiment with Human NOTUM is 1.42 nM. In addition, the kon in the experiment with Human NOTUM was 257000 M⁻¹ s⁻¹.

B2: MAb 1.846 (antibody, IgG2b, V domains shown)
VH: B1 VH with G10D, F37L, R56T, V58L, Y59S, D62N, V64M, N77K, M93I, H100N
VL: B1 VL with A12V, I28S, T31E, E85G, A88T, E97V
notes: Mouse monoclonal antibody from Campaign 1, IgG2b
For the molecule B2, the binding result with H(Q47) was “binds”; in the experiment with M-H it was “no binding”; in the experiment with H-M, “binds”.

B3: MAb 1.815 (antibody, IgG1, V domains shown)
VH: DVQLLESGGGLVQPGGSRKLSCAASGFTFSDFGMHWVRQAPEKGLEWVAYSSSGGTTVYYADTVKGRLTLSRDNSKNTLFLEMTSLRSEDTAMYYCARASYDGGYFDCWGQGTSLTVSS
VL: B1 VL with I28S, M37I, N57D, T73A, D74A, Q93H, P100F
notes: Mouse monoclonal antibody from Campaign 1, IgG1
On to B3, for which the figures for the binding result in the experiment with H(Q47), with M-H and with H-M were “binds”, “no binding” and “binds”, respectively.
